This test has as its target T1, ubiquitin (single molecule, mono-ubiquitin) (Homo sapiens (Human), UniProt P0CG47 1-76).
T1 construct: also called one ubiquitin
Description: isothermal titration calorimetry, one OtUBD to one ubiquitin. (In general: Isothermal titration calorimetry measures the heat released or taken up as one component is titrated into another.)

B1: OtUBD (ubiquitin binding domain of an effector protein of Orientia tsutsugamushi), native unmodified domain (other)
chain: VNFLSENRMITSAAAALADTLLKNNNRITEGVLVDRIFDNKILSVQEKQQLLNNLLDNHIKENKSLTKESLTRMLASTHFVQQQANVLLNEKFNK
notes: also called OtUDB
Usually Kd stands for the equilibrium constant for the complex coming apart. Higher therefore signals a looser complex. Regarding B1, the Kd was determined as 5.3 nM.
